Assay results reported in patent US20220135682A1.

Columns and labels:
[1] = molecular target: Human ICOS (human) (UniProt Q9Y6W8); experiment: in vivo target engagement, flow cytometry on human peripheral blood CD4+ T cells, 0.1 mg/kg, Day 42
[2] = molecular target: Human ICOS (human) (UniProt Q9Y6W8); experiment: in vivo target engagement, flow cytometry on human peripheral blood CD4+ T cells, 0.1 mg/kg, Day 42, average of three subjects
[3] = molecular target: Human ICOS (human) (UniProt Q9Y6W8); experiment: in vivo target engagement, flow cytometry on human peripheral blood CD4+ T cells, average of three subjects after first i.v. dose of 0.1 mg/kg

Sequence of Human ICOS (human) (Q9Y6W8 21-199): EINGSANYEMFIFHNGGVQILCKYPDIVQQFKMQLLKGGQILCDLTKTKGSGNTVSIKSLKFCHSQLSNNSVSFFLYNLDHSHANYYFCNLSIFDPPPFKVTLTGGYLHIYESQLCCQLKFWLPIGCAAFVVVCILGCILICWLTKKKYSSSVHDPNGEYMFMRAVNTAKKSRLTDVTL

Substance: JTX-2011 (antibody)
- target engagement [1]: < 40%
- target engagement [2]: 10%
- target engagement [3]: 100%
